Results published in patent US20250346877, “[…] MEGANUCLEASES HAVING […] FOR A RECOGNITION SEQUENCE IN THE […] B VIRUS GENOME” (Precision BioSciences, Inc., published 2025).
Numbering of substitutions follows the chain as printed.

T1: HBV 11-12L.1090QQ Linker1923(1/2) meganuclease (synthetic (I-CreI derived))
T1 sequence: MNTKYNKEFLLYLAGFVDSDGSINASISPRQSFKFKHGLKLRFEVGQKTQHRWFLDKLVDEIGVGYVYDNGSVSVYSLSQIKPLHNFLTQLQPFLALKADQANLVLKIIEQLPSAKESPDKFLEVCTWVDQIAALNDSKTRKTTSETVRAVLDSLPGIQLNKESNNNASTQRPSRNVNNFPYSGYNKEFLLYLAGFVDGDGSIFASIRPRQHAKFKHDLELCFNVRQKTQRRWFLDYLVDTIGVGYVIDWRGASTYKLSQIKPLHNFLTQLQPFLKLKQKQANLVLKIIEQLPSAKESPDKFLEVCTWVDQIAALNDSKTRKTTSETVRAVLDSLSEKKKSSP

T2: HBV 11-12L.1090QQ Linker1 meganuclease (synthetic (I-CreI derived, Chlamydomonas reinhardtii))
T2 sequence: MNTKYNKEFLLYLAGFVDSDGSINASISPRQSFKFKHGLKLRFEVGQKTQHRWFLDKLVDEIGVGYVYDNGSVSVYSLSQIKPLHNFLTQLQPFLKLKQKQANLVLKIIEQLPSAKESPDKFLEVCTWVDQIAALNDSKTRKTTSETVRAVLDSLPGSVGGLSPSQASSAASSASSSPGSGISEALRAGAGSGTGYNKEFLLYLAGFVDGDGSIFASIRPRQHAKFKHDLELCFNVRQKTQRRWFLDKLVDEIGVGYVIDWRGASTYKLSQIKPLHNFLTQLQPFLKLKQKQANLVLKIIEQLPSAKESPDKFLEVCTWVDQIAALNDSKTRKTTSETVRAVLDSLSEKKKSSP

T3: HBV 11-12L.1090QE Linker1923(1/2) meganuclease (synthetic (I-CreI derived))
T3 sequence: T1 sequence with Q260E

T4: HBV 11-12L.1090QE Linker1923(1/2) meganuclease (synthetic (I-CreI derived))
T4 chain: T1 sequence with Q260E

T5: HBV 11-12L.1090QQ Linker1923(1/2) meganuclease (synthetic (I-CreI derived))
T5 chain: T1 sequence

B1: HBV 11-12 recognition sequence (dsDNA)
DNA 1: TGCCGATCCATACTGCGGAACT
DNA 2: AGTTCCGCAGTATGGATCGGCA

Tests used:
[1] = tested on: T1, HBV 11-12L.1090QQ Linker1923(1/2) meganuclease (synthetic (I-CreI derived)); assay: cell_activity; details: off-target, HepG2-sAg, 100 ng mRNA; on-target about 60%
[2] = tested on: T2, HBV 11-12L.1090QQ Linker1 meganuclease (synthetic (I-CreI derived, Chlamydomonas reinhardtii)); assay: cell_activity; details: off-target, HepG2-sAg, 100 ng mRNA; on-target about 60%
[3] = tested on: T3, HBV 11-12L.1090QE Linker1923(1/2) meganuclease (synthetic (I-CreI derived)); assay: cell_activity; details: off-target, HepG2-sAg, 100 ng mRNA, below LOD; 0.2% in naive PHH at 500 ng
[4] = molecular target: T4, HBV 11-12L.1090QE Linker1923(1/2) …; assay: cell_activity; indel formation in HepG2-sAg, day 2; EC90 23.93 ng; details: tags: SV40 NLS (N- and C-terminal in pRNA8), mRNA-delivered
[5] = molecular target: T5, HBV 11-12L.1090QQ Linker1923(1/2) …; assay: cell_activity; indel formation in HepG2-sAg, day 2; EC90 4.93 ng; details: tags: SV40 NLS (N- and C-terminal in pRNA8), mRNA-delivered

| Molecule | activity [1] [% editing] | activity [2] [% editing] | activity [3] [% editing] | EC50 [4] [ng mRNA] | EC50 [5] [ng mRNA] |
| --- | --- | --- | --- | --- | --- |
| top off-target site Chr17:17242769 | 2 | 0.5 | < 0.2 | – | – |
| B1 | – | – | – | 2.3 | 0.26 |
